Measurements: the DeepSol protein solubility set

Assay: soluble on expression in E. coli; label from the status in PepcDB or PDB records

Row | Sequence | soluble on expression in E. coli
1 | MAHHHHHHMTALITKQRYNWMGYDGVESAVCDTALLRSDGGPANNYNYMHRQQVIMEVKERLYRIKRDLGLIPEEELRAEERAIQRRRMEKKRREEEERIRKEAEEAARAEEMERRHLELEEAEERASAEEVATQASAEHKHYMNDSDEDSDEENGIDDEQSASLVAMLRTQEEIDSAIAGFTKGTRMLLASSGNGYVSYLDGSVHFTIAKVESHNASNREKVMQALAGTNVAMPTAEEYSLEEVRQAMHDRDTARKKLDALRALQDPTYTARIRSAEKDTYGTPVQQLMEEDGDMSALVANCEDAKRFAESVRKAYNSRAAASAHALACALCTPPFTAEQESTSEAQAPAGKMANAEDGVSQPTGANSPSSSTSAQ | not soluble
2 | MGKARGVNNGVNESSLGYLFGSGQPSSAAAATMGTTTTTTTTTTTDGTGGRPITTTTTTVTDNKKTSAGVRGSPNNYFRSEGQNCGNFLTDRPSTKVHAAPGGGSSLDYLFGGPSPAGSGNK | not soluble
3 | MGHHHHHHSHMRTYSDKNELKEEVLKSYKKYIAEFNDIPEKLKDLRIDEVDRTPAENLAYQVGWTTLILKWESDEQSGLEVKTPTETFKWNQLGELYQHFTETYASLTIKELTAQLNDNVDAIGNMIDSMSDEVLFKPHMRNWADSATKNAVWEVYKFIHINTVAPFGTFRTKIRKWKKVALK | soluble
4 | MSLYPLVLDLAATGVPVAVTCRELGFTKQGFYKWCAHPVSARDWDEAHLINAAYDVHTDDPEFGHRFIADELHAAGLQTSERRVWRLCSQQQLFSHTIKRARKHGKKPGPPVCDDLVERDFTAKAINELWLTDVTEHHTSEGKLYMCAVKDVFSNRIVGYAIDSRMKSRLAVAAIDDAVARRGGSGMIAGCVVHSDRGSQFRSRKFQQALRHYGLVGSMGRVGAAGDNAAMESFFAVLQKNVLDRGRWDTRARLRTAIVHWVERTYHRKRRQRRLGKLTPVEYELVHQKAVALAAEGHHHHHH | not soluble
5 | MSAMENESNKDTNTETKSVPEEMEASKYVGQGFQPPAEKDAIEFAKKHRKEFEKVGEQFFKDNFGLKVKATNVVGKDDGVEVYVHCEDHGIVFNASLPLYKDAIHQKGSMRSNDNGDDMSMMVGTVLSGFEYRAQKEKYDNLYKFFKENEKKYQYTGFTKEAINKTQNVGYQNEYFYITYLSRNLKEYRKYYEPLIHKNDKEFKEGMQQARKELDYTANTDAVSTLFSTKKNFTKDNTVDDVIELSNKLKEKPNMPQKSQVTIQLGKSSINTKKPFYDDINPIEGLEHHHHHH | soluble
6 | MASATTSSKNGKPLVVVYGDYKCPYCKELDEKVMPKLRKNYIDNHKVEYQFVNLAFLGKDSIVGSRASHAVLMYAPKSFLDFQKQLFAAQQDENKEWLTKELLDKHIKQLHLDKETENKIIKDYKTKDSKSWKAAEKDKKIAKDNHIKTVPTAFINGEKVEDPYDYESYEKLLKDKIKLEHHHHHH | soluble
7 | MLDDIPITIQKSKKIKTLSLNITPSLEVILKMPNSCSQTRASAFLKEQEAWLKKTFLSMQEKHSLLRTNLEKYQNKILVFDEVKNANDYTLTELKKILKTYLEQKLPLIAQKMQTSYTHFSIRNNAKVLGSCSYHNRLSFALLLVCAQKEAIDYVIIHELAHTIHKNHSKNFWRCVQIFCPNYRALRERLKQNTIFYAQLLKTLQPLEHHHHHH | soluble
8 | MSLNADTLEDIKKAGVIKAATEMQFPPFDFLEGDKYVGVDRDLMDEVAKELGVKVEYIDLPWTSVLPGLEAGKFDLVIAPVTITKERLARYAFTLPISEGTAALMKRADDDSITKPEDIAGKTIGGGKGTSQLGQIKEYAAALPGKVEFKEYVDSNQSYADLAAGRVDASVNSYPNLAYAAAQRPETFAVVLPPFGKTTYFSWVSRLGEKDASLVEAVNAALLKLGEDGRMSAIHEKWFGKGVDLPKEGHHHHHH | soluble
9 | MGSSHHHHHHSSGLVPRGSHMVAFLRGDRRKENSDNFRTRNSILGDIINSSPATVGKAQYLTYLAQPIEPSGNYSTFAEAQKTRAPRVYVGANDGMLHGFDTDGNETFAFIPSAVFEKMHKLTARGYQGGAHQFYVDGSPVVADAFFGGAWHTVLIGSLRAGGKGLFALDVTDPANIKLLWEIGVDQEPDLGYSFPKPTVARLHNGKWAVVTGNGYSSMNDKAALLIIDMETGAITRKLEVTGRTGVPNGLSSPRLADNNSDGVADYAYAGDLQGNLWRFDLIAGKVNQDDPFSRANDGPAVASSFRVSFGGQPLYSAVDSAGAAQAITAAPSLVRHPTRKGYIVIFGTGKYFENADARADTSRAQTLYGIWDQQTKGEAAGSTPRLTRGNLQQQTLDLQADSTFASTARTIRIASQNPVNWLNNDGSTKQSGWYLDFMVNGTLKGEMLIEDMIAIGQVVLLQTITPNDDPCADGASNWTYGLDPYTGGRTSFTVFDLARQGVVDSKSDYSYNKQNVAVSGTEQKGLGGLTLSTNEQGNPEVCSSGECLTVNPGPNTRGRQNWRPIEGKN | soluble
10 | MNTYFDIPHRLVGKALYESYYDHFGQMDILSDGSLYLIYRRATEHVGGSDGRVVFSKLEGGIWSAPTIVAQAGGQDFRDVAGGTMPSGRIVAASTVYETGEVKVYVSDDSGVTWVHKFTLARGGADYNFAHGKSFQVGARYVIPLYAATGVNYELKWLESSDGGETWGEGSTIYSGNTPYNETSYLPVGDGVILAVARVGSGAGGALRQFISLDDGGTWTDQGNVTAQNGDSTDILVAPSLSYIYSEGGTPHVVLLYTNRTTHFCYYRTILLARAVAGSSGWTERVPAYSAPAASGYTSQVVLGGRRILGNLFRETSSTTSGAYQFEVYLGGVPDFESDWFSVSSNSLYTLSHGLQRSPRRVVVEFARSSSPSTWNIVMPSYFNDGGHKGSGAQVEVGSLNIRLGTGAAVWGTGYFGGIDNSATTRLATGYYRVRAWI | soluble
11 | MSLENVTMGFWYVSPRRGPHRTTRQISAGTWEEVRPNYTTPVADAMDRLMKTTPEDIAGRLLLLHGPPGTGKTSALRTLARSWRDWCQVDCVLDPERLFSDVGYLMDIAIGEEDGTGKGRWRLLLLEDCDELIRGEAKHTAGQALSRLLNLTDGLLGQGRNVLVGVTTNEDLERLHPAVVRPGRCLARIEVGPLTRREAVNWLGTEEGVGREGATLAELYALRRGTSPTSLPEPREGAEGHHHHHH | soluble
12 | GSRPGPASQLPRFVRVNTLKTCSDDVVDYFKRQGFSYQGRASSLDDLRALKGKHFLLDPLMPELLVFPAQTDLHEHPLYRAGHLILQDRASCLPAMLLDPPPGSHVIDACAAPGNKTSHLAALLKNQGKIFAFDLDAKRLASMATLLARAGVSCCELAEEDFLAVSPSDPRYHEVHYILLDPSCSGSGMPSRQLEEPGAGTPSPVRLHALAGFQQRALCHALTFPSLQRLVYSTCSLCQEENEDVVRDALQQNPGAFRLAPALPAWPHRGLSTFPGAEHCLRASPETTLSSGFFVAVIERVEVPRRARG | soluble
13 | MIRQVIQRISNPEASIESLQERRFWLQCERAYTWQPIYQTCGRLMAVELLTVVTHPLNPSQRLPPDRYFTEITVSHRMEVVKEQIDLLAQKADFFIEHGLLASVNIDGPTLIALRQQPKILRQIERLPWLRFELVEHIRLPKDSTFASMCEFGPLWLDDFGTGMANFSALSEVRYDYIKIARELFVMLRQSPEGRTLFSQLLHLMNRYCRGVIVEGVETPEEWRDVQNSPAFAAQGWFLSRPAPIETLNTAVLAL | not soluble
14 | MKAEKVRLRKQIIEHMNSLSEEQYTTLSEQIAFSLYAQKEWVEAKTIGITLSMENEVNTYPIIEKAWEEGKKVVVPKCNKGTRTMSFRQINNFDQLETVYMNLREPIPGLTEEVNMDEIDLQIVPGVAYTERGERIGYGGGYYDRYLVHYKGKTLSLAYDFQMVKHIPVEPFDKNIEKIITEKGTLLTNKLVLEHHHHHH | soluble
15 | MGSDKIHHHHHHMVVNALAVGCGLNVAPAQAHKFASNYHCFMVRRFDRTNAGRRLHFASAMTLTRHQDGEDASTGVSYLELADVLIRHGAQTNTDLKELWSRIVFNILVSNTDDHLRNHGYILIPGKGWRLSEAYDLNPVARSDGLKLNITENDNALDLELAREVAEYFRLGLTEADDIIANFRGIVSQWRIIAERLRLPGREQELMAEAFRGAI | not soluble
16 | MKDPLLNSLIYVSRYYGLANSPEALVNGLPLSDGKLTPFLLPRAAERAGLVAKENRAELEKISSLILPAILVLKGGDSCVLNSINMETREAEVTTLESGMVPISIPLEDLLEQYTGRYFLVKKQFRFDERSPEVLKTKEGHWFWSTLWQSKRIYRD | not soluble
17 | SLIHIAIVEDENKDRELLKEYLDRFQAEKGEPLFVHVYPDGEEFLESFSSGKFDILLLDIHMQYMNGMATAQEIRKSDENVLIIFITNLVQYAVQGYSVRAFDFIVKPVEYSVFAQKLYRATQRLNRTIHSCVRFKVLDQIVNLQLSGILYFEIVARKLFIYTDTEIYRCNDTLHSIEEKLNDGHFFRCHAGYLVNVAYVRSVGKDYAMVGSARIPVSKHRRKAFLDAIGNYLGSKEG | not soluble
18 | MVLSRHVIITPCPDRPGTSILFSAKRGALILVDDELLAAIGAGGLDADEEQTLAELGFLVPDHDSEQQEMCSFVDESNRASRSFAALIILNLSCNLACSYCFEGNRRGAHFMDDDTADRLVAYLVSGPVAEGRSLSLRFYGGEPLLSVPTIRRIARPLKKVMDARGLSFSFSLTTNGTLLTRELVEELIPLGLVGATVTLDGPPDIHDAARPFVGGEGSFSVIFANLKAVADLIALEIGGNFTPETYREYPRLFDLLVAEGLGPERLALVRFNAVMSAGENRALPEFTGGCASVNEPWLKDATLFIREELLRRGFPAPGLSPHYCAIEAEDSLIVNHDGTFYRCPAFIGIEGLAAGSLDDGLSDHAASHGLGAWKNEECLSCAYLPLCFGGCRYYGYLEHGRIDRVSCGRDLFDAIVGPFLALEVKYRHQPGEDASDTDGDSD | not soluble
19 | MGSDKIHHHHHHMAVIYYDKDADLNLIKDKKIAIIGYGSQGHAHALNLKDSGLNVVVGLREGSKSWKKAEEQGLTVKTIEEAAKEADIIMILIPDEHQPEIYKKYIEKHLTEGKMLMFAHGFNIHYHQIIPPKNVDVTMIAPKSPGHIVRREYVEGRGVPALVAVYQDYTGKAKDIALAYAKGIGVTRAGVIETTFKEETETDLFGEQAVLCGGVTALIKAGFETLVDAGYQPEIAYFECLNELKLIVDLIYEGGLSFMRYSVSNTAEYGDYISQEKIVTKEVRENMKQMLKDIQTGKFAKDWILENQAGRPYFYTMRKKESEHLIEKVGKELRKMMPWLKERNVDEE | not soluble
20 | MFYLGIDAGGTKTSFMLINHLGEVLSTYTSGTCHIHQVGFDGFRKGIQEGIDKICSEINICRDDLSYSFLGLPAYGENESEKLKMNSIIAEILGENKFSCGNDVEVALAGSLAGQPGICIILGTGAIASGITNDLKTARTSGWGYICGDEGSGYWIAKKGVEIFGKQSDHRLERTALYDIFKNELKLENDFDLIFLIKDKYKQDRTKVANLAMLVYKAALKGDKYALDIYRQAAKECLLMVNGLTNQLEFTGVLNISYSGSVFNSKEFILDPLRNYLQDNYTAFNLTAPILPPIKGAALNALKLHKGEIPEGVVHNLAKEPKEILVLEHHHHHH | not soluble
